Biological target: T1, GST-USP7 (UniProt Q93009 1-1102)
T1 construct: USP7, cloned in pGEX-4T-1; also called GST-tagged USP7; source: plasmid in pGEX-4T-1
Experiment: pull-down; purified DACH1 incubated with GST or GST-USP7 conjugated with GSH-Sepharose, followed by Coomassie blue staining
Conditions: both partners purified

T1 sequence (Q93009 whole entry): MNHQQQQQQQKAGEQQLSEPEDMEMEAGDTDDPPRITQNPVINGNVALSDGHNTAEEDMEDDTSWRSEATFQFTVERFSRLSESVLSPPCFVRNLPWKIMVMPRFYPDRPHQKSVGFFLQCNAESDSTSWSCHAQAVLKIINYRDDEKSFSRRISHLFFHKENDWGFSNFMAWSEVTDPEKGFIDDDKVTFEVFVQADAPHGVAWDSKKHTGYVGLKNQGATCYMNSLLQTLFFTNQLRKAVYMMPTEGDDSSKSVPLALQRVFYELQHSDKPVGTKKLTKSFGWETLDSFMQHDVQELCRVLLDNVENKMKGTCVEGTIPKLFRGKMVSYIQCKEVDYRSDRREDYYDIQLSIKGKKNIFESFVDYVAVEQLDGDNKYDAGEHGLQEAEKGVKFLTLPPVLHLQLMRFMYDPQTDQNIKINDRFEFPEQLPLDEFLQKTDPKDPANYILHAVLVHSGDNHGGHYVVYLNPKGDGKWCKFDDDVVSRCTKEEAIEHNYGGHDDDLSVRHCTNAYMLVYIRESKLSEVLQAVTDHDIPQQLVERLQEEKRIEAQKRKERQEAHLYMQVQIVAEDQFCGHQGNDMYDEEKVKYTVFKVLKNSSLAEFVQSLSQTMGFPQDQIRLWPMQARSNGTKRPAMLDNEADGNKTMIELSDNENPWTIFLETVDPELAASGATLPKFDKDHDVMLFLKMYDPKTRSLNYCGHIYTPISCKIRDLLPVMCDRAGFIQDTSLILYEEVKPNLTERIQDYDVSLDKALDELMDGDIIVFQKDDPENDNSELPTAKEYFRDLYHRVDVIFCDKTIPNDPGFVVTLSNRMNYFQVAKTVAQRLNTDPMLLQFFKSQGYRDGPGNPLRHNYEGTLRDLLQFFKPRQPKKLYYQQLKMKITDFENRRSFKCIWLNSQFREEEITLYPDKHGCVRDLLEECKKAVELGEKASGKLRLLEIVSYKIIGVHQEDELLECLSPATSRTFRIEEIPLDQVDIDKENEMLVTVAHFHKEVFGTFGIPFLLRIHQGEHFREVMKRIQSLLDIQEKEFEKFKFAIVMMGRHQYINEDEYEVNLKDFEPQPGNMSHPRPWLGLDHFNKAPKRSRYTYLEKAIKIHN

B1: Myc-DACH1-FL (natural protein, human, UniProt Q9UI36 1-758, looked up)
chain: MAVPAALIPPTQLVPPQPPISTSASSSGTTTSTSSATSSPAPSIGPPASSGPTLFRPEPIASAAAAAATVTSTGGGGGGGGSGGGGGSSGNGGGGGGGGGGSNCNPNLAAASNGSGGGGGGISAGGGVASSTPINASTGSSSSSSSSSSSSSSSSSSSSSSSSCGPLPGKPVYSTPSPVENTPQNNECKMVDLRGAKVASFTVEGCELICLPQAFDLFLKHLVGGLHTVYTKLKRLEITPVVCNVEQVRILRGLGAIQPGVNRCKLISRKDFETLYNDCTNASSRPGRPPKRTQSVTSPENSHIMPHSVPGLMSPGIIPPTGLTAAAAAAAAATNAAIAEAMKVKKIKLEAMSNYHASNNQHGADSENGDMNSSVGSSDGSWDKETLPSSPSQGPQASITHPRMPGARSLPLSHPLNHLQQSHLLPNGLELPFMMMPHPLIPVSLPPASVTMAMSQMNHLSTIANMAAAAQVQSPPSRVETSVIKERVPDSPSPAPSLEEGRRPGSHPSSHRSSSVSSSPARTESSSDRIPVHQNGLSMNQMLMGLSPNVLPGPKEGDLAGHDMGHESKRMHIEKDETPLSTPTARDSLDKLSLTGHGQPLPPGFPSPFLFPDGLSSIETLLTNIQGLLKVAIDNARAQEKQVQLEKTELKMDFLRERELRETLEKQLAMEQKNRAIVQKRLKKEKKAKRKLQEALEFETKRREQAEQTLKQAASTDSLRVLNDSLTPEIEADRSGGRTDAERTIQDGRLYLKTTVMY
notes: DACH1, human, full length (FL), cloned in pcDNA3.1 or a lentiviral plasmid; the text calls it Myc-tagged DACH1; also called Myc-tagged DACH1; Myc-tagged FL DACH1; source: HEK293T or SW480, transfected, in lysate; HCT8, stably expressed, whole cell extracts
B1: binds.
